Measurements published in publication PMC4605320, “Interference activity of a minimal Type I CRISPR–Cas system from Shewanella putrefaciens”.

Target: T1, Cas1821 (Cascade backbone);Cas1822;Cas6f (Shewanella putrefaciens …, UniProt A4Y6G1;A4Y6G2;A4Y6G3 1-315;1-336;1-183, ||)
T1 sequence 1: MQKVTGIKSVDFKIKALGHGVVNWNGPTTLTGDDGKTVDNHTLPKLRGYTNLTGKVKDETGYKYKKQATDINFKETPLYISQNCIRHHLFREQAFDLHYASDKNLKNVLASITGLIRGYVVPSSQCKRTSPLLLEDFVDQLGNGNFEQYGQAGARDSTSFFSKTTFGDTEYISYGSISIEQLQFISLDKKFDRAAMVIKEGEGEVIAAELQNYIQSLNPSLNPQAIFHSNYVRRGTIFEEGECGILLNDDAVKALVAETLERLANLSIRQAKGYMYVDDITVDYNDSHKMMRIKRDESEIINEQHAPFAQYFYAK
T1 sequence 2: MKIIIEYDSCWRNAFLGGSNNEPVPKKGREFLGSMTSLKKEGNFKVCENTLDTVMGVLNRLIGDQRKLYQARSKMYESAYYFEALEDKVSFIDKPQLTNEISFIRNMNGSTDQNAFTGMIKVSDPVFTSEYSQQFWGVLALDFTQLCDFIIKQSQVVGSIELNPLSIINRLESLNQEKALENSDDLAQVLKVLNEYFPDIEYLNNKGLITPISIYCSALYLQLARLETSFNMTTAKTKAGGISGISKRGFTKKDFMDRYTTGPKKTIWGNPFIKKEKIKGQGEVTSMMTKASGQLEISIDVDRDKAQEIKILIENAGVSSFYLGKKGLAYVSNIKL
T1 sequence 3: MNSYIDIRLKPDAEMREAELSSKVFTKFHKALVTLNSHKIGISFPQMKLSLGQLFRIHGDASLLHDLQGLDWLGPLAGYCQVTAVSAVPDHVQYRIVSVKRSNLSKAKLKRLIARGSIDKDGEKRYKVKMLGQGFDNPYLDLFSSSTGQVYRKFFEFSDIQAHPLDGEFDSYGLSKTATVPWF
Assay: co-purification (Ni-NTA, size exclusion; RNA by urea PAGE); complex assembled in E. coli; EMSA: 6% native PAGE, 250-500 nM Cas1821, buffer and temperature not given; Cascade SEC: 50 mM HEPES-NaOH pH 7.0, 150 mM NaCl, 1 mM DTT
Conditions: protein: recombinant;recombinant;recombinant; tags: N-terminal His;none;none; chain copies: 6;1;1; 3' five base pair stem-loop (predicted)

B1: mature crRNA, spacer4 (60 nt) (structured_RNA)
RNA: CUUAGAAAUAUCGCCCAGCAAGACGCGCAAACCUAUAACCGUUCACCGCCGCACAGGCGG
- binding result: binds
